Drawing on article PMC5432954, this text covers Ki for two substances.

The target in this test is papain (UniProt P00784). Kind of test: enzyme inhibition assay (Dixon plot); various amounts of recombinant protein with 10 ug papain (1.24 uM final in 350 ul), 0.1 M sodium phosphate pH 6.0, 1 mM EDTA, 2 mM beta-mercaptoethanol, 37°C, substrate BANA; Ki from plots of 1/v versus [I].

Broadly, the Ki is a dissociation constant, usually derived from enzyme kinetics or from competition with a known ligand.

Chain of UniProt P00784 (P00784 134-345): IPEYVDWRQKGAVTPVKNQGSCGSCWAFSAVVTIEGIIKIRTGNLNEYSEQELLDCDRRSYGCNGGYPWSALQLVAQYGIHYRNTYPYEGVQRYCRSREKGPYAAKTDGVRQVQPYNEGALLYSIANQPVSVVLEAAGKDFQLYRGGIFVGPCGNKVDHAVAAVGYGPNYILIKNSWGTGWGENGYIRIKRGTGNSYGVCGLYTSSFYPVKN

As to “SiCYS, sesame seed group II phytocystatin (non-fusion recombinant) (natural protein)”, the Ki is 19 nM.

For the substance “SiCYS-N, N-terminal domain of SiCYS (non-fusion recombinant) (domain or fragment)”, the Ki came to 79 nM.
